From US20170306049A1 (YEDA RESEARCH AND DEVELOPMENT, published 2017) come the findings set out here.

One may read the Kd as the equilibrium constant for the complex coming apart. As usually defined, the EC50 is the concentration that produces a half-maximal response.

The target in test [1] is T1, HER3 fused with SNAP-Tag, expressed on HEK 293 cells and labelled with Lumi4-Tb (human, UniProt P21860 20-1342, SNAP-tag labelled with BG-Lumi4(Tb)).
T1 construct: whole, on cells; the parts follow the printed name HER3-SNAP-Tag; also called HER3-SNAP-Tag; HEK293-HER3-SNAP-Lumi4-Tb cells; not shown: SNAP-Tag (CISbio Tag-lite plasmid)
Nature of the test: Tag-lite FRET KD of Table 2, compared with the other mAbs.

Test [2] addresses T1, HER3 fused with SNAP-Tag, expressed on …. Nature of the test: Tag-lite FRET, d2-labelled mAb on HEK293 cells with Lumi4(Tb)-labelled HER3-SNAP-Tag. The method, then:
FIGS. 3A-E show Kd determination of mAb to HER3 using the Tag-Lite technology. Cells are transfected with HER3-SNAP-Tag and labeled with BG-Lumi4(Tb), a SNAP-tag subtract. Following incubation with increasing concentrations of indicated d2 labeled mAb directed to HER3, the Kd was determined from the binding curve fitting. The binding curve was obtained by measuring the FRET between the donor Lumi4(Tb) and the acceptor d2-dye. The unspecific binding was evaluated by adding an excess of unlabelled Ab.
TABLE 2 Kd determination of indicated mAb to HER3 using the Tag- Lite technology. Cells were transfected with HER3-SNAP- Tag and labeled withBG-Lumi4(Tb), a SNAP-tag subtract. Following incubation with increasing concentrations of indicated d2 labeled mAb directed to HER3, the Kd was determined from the binding curve fitting. The binding curve was obtained by measuring the FRET between the donor Lumi4(Tb) and the acceptor d2-dye.

Test [3] deals with T2, IgB3 (recombinant HER3 extracellular domain fused to a human IgG Fc domain) (human, UniProt P21860 20-643).
T2 construct: extracellular domain; Secreted from HEK-293 cells, purified on protein G / protein A; not shown: Fc domain of a human IgG1
Nature of the test: ELISA, IgB3-coated microplate, purified mAb, HRP anti-mouse IgG. The method, then: FIGS. 2A-D show monoclonal antibody targeting HER3 extracellular domain. (FIG. 2A) 96 well-plates were coated with 1.5 μg/ml of IgB3, blocked with PBS-BSA (1% weight/vol) and incubated for 1 h with various concentrations of purified mAbs under gentle shaking at RT. After washing, a second 1 h-incubation with HRP-labelled anti-mouse IgG was performed and followed by incubation with 2,2′-azino-bis (3-ethylbenzothiazoline-6-sulfonic acid) for 10 min. The OD at 415 nm was measured using by an ELISA microplate reader. […] After 2 washes, the cells were incubated for 1 h at 4° C. (in the dark) with a secondary anti-mouse IgG Ab coupled to AlexaFluor 488. The fluorescence intensity (F.I.) was measured on the LSRII flow cytometer. […] After 4 washes, the content bound to the beads was eluted and analyzed by immunoblotting (IB) with an antibody to HER3/ErbB-3.
The comparison of the capacity of purified mAbs to bind with IgB3 was evaluated using ELISA (FIG. 2A). […] Each antibody was labeled with the d2-dye, and by measuring the binding of the labeled-mAb to cells presenting Lumi4(Tb)-labeled HER3 using FRET, the KD was determined and reported in Table 2, below. The values obtained correlate with the different patterns of HER3 binding determined by FACS (FIGS. 2B and 2C), although they are distinct from the patterns of IgB3 binding determined using ELISA (FIG. 2A).
(In general: In an ELISA, binding on a coated surface is turned into a signal by an enzyme label.)

Test [4] deals with T3, EGFR (ErbB1/HER1) (human, UniProt P00533 25-1210).
T3 construct: whole, on cells; also called NIH/3T3-EGFR cells; NIH/3T3-R1
Nature of the test: flow cytometry on NIH/3T3 cells presenting EGFR alone. The method, then:
(§1) FIGS. 4A-B show specificity of monoclonal antibodies directed to HER3. (FIG. 4A) NIH/3T3-EGFR, -HER2, -HER3 or -EGFR/HER4 cells were incubated with 25 μg/ml of each mAb for 1.5 h at 4° C. After 2 washes, the cells were incubated for 1 h at 4° C. (in the dark) with a secondary anti-mouse IgG Ab coupled to AlexaFluor 488. The fluorescence intensity (F.I.) was measured on the LSRII flow cytometer. The negative control is made using an irrelevant mouse IgG as primary Ab. The positive control are the following mAb 565 (anti-EGFR), mAb L26 (anti-HER2), mAb 9F7 (anti-HER3), mAb 77 (anti-HER4). (FIG. 4B) The panel presents the geometric mean and the CV of the fluorescence intensity.
(In general: In flow cytometry, cells or beads pass a laser one at a time.)

For test [5], the target named is T4, HER2 (ErbB2) (human, UniProt P04626 23-1255).
T4 construct: whole, on cells; also called NIH/3T3-HER2 cells; NIH/3T3-R2
Nature of the test: flow cytometry on NIH/3T3 cells presenting HER2 alone. The method, then: as §1

Test [6] concerns the target T5, HER4 (ErbB4) (human, UniProt Q15303 26-1308).
T5 construct: whole, on cells; also called NIH/3T3-EGFR/HER4 cells; NIH/3T3-R1R4
Nature of the test: flow cytometry on NIH/3T3 cells presenting EGFR and HER4. The method, then: as §1

T1 sequence (P21860 20-1342): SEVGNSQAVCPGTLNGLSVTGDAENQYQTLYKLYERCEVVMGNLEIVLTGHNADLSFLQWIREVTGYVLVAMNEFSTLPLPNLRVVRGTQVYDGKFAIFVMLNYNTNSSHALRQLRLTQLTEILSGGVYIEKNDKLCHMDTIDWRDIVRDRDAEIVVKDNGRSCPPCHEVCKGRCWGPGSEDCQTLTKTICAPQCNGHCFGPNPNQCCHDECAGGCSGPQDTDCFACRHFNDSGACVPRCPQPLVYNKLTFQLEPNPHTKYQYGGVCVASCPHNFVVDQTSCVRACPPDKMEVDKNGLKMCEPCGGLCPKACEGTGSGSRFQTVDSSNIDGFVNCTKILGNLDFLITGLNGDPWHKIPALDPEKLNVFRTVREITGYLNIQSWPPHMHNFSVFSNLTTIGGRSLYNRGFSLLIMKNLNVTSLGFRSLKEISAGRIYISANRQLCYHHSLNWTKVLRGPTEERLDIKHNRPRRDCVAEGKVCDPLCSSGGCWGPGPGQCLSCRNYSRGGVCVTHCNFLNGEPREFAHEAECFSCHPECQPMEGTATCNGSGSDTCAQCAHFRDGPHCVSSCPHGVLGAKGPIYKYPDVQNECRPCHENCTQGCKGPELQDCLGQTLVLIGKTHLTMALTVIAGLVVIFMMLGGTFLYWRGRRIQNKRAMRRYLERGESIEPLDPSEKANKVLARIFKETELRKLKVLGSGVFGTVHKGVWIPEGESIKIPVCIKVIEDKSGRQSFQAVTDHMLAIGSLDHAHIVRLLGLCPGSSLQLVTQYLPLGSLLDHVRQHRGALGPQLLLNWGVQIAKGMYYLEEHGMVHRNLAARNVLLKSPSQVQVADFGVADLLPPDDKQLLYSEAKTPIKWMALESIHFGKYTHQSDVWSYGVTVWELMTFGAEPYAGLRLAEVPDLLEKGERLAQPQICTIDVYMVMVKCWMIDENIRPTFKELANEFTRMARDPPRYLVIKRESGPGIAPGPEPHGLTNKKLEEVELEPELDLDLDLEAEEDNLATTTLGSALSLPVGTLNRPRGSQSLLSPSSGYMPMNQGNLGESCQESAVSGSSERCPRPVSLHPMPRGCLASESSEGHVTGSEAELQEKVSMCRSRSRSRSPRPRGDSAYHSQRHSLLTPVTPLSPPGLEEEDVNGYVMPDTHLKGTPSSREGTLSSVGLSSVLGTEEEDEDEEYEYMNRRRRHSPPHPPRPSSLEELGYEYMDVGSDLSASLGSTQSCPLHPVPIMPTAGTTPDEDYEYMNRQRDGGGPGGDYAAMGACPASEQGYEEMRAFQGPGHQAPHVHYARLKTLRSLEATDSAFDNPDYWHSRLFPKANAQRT
T2 sequence (P21860 20-643): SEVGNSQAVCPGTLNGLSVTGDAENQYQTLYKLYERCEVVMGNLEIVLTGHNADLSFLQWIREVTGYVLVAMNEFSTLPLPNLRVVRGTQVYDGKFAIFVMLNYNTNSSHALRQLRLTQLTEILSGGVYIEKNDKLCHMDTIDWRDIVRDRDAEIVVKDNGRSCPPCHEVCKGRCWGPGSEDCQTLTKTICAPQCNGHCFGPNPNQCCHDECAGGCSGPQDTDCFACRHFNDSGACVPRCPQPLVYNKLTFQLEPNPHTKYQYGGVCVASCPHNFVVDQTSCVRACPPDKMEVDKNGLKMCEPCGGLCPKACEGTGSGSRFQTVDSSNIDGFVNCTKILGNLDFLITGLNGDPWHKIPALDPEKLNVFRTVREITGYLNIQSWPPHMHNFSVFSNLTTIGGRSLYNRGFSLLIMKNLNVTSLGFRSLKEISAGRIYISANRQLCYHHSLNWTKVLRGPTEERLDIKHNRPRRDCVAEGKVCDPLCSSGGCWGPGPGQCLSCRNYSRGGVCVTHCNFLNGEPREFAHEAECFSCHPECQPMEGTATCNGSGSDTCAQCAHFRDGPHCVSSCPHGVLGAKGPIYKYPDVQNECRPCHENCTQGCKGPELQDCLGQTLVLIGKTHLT
T5 sequence (Q15303 26-1308): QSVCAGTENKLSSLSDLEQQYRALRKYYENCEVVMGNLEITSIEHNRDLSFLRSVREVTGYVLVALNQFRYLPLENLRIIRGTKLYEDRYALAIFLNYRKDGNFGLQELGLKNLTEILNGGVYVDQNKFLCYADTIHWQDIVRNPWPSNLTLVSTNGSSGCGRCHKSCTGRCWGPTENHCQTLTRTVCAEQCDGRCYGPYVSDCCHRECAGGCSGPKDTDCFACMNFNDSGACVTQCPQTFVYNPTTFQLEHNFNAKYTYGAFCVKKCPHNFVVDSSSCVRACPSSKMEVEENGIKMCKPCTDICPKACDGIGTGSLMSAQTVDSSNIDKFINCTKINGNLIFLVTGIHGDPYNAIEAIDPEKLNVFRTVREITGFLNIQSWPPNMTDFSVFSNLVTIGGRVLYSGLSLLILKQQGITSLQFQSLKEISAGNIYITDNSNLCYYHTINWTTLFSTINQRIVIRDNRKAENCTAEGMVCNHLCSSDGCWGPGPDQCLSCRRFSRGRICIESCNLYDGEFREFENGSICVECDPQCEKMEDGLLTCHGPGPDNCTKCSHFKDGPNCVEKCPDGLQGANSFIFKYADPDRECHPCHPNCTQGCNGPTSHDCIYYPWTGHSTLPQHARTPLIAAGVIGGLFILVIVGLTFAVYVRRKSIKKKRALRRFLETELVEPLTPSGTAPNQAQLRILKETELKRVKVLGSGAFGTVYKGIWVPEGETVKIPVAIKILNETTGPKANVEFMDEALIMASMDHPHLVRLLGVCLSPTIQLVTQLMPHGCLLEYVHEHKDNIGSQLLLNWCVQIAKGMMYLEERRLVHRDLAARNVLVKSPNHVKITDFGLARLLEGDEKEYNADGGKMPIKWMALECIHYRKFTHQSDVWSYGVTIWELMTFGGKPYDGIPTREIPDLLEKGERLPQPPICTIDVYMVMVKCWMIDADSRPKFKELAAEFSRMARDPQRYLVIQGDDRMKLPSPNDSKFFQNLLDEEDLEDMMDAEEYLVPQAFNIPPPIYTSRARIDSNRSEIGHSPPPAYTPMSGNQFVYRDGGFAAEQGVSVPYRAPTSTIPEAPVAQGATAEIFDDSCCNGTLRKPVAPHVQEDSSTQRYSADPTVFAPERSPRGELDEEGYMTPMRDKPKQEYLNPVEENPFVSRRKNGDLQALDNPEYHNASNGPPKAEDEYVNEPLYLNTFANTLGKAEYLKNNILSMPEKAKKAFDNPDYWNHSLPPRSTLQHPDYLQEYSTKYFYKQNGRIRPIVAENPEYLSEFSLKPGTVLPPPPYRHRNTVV

B1: anti-HER3 mAb NG83 (antibody, V domains shown)
VH: QIQLVQSGPELKKRGETVKISCKASGYTFTNYGMNWVRQAPGKGLKCMGWINTYAGEPTYADDFKGRFAFSLDSSASTAYLQINNLKNEDMATYFCARGGITGAMDYWGQGTSVTVSS
VL: DVVMTQKTSSLSTSLGDRVTISCRASQDIRNYLNWYQQKPDGTVKLLIYYTSRLHSGVPSRFSGSGSGTDYSLTISDLEQEDIATYFCQQGNTLPWTFGGGTKLAIK
For the molecule B1, the “fold weaker affinity than the other mAbs” value in test [1] is 10 fold. Also, the equilibrium dissociation constant (Kd) in test [2] was above 14 nM.

B2: anti-HER3 mAb NG140 (antibody, V domains shown)
VH: QVQLKESGPGLVKPSQSLSLTCSVTGYSITSGYYWNWIRQFPGNKLEWMGSIYYDGSNNYNPSLKNRISVTRDTSKNQFFLKLNSVTTEDTATYYCARDYDVGYAMDYWGQGASVTVSS
VL: DIVLTQSSSYLSVSLGGRVTITCKASDHINNWLAWYQQKPGNAPRLLISGATSLETGVPSRFSGSGSGKDYTLSITSLQTEDVATYYCQQYWSIPWTFGGGTKLEIK
Turning to B2, the EC50 in test [3] is 16.8 nM. In addition, the Kd in test [2] was determined as 6.12 nM.

B3: mAb XC252 (antibody, V domains shown)
VH: EVQLQQSGAELVRPGVSVKISCKGSGYTFTDYAMHWVKQSHAKSLEWIGVISTYYGDPRDNQKFKGKATMTVDKSSSTAYMELARLTSEDSAIYYCARGDYDWYAIDYWGQGTSVTVSS
VL: DVVMTQTPLSLPVSLGDQASISCRSSQSIVHSDGNTYLEWYLQKPGQSPKLLIYKVSNRFSGVPDRFSGSGSGTDFTLKISRVEAEDLGVYYCFQGSHVPPTFGGGTKLEIK
notes: also called XC252-K2 (Lumi4 Tb cryptate labelled)
B3: the binding result in test [4], in test [5] and in test [6] was “no binding (tested: 25 µg/ml)” throughout. Also, the EC50 in test [3] turned out to be 0.21 nM. The Kd in test [2] turned out to be 1.09 nM.

B4: anti-HER3 mAb NG33 (antibody, V domains shown)
VH: DVQLQESGPGLVKPSQSLSLTCSVTGYSITSGFYWSWIRQFPGNKLEWMGYIAYDGTSNYNPSLKNRISITRDTSKNQFFLKLKSVTNEDTPTYYCARGGGYYGQLLDYWGQGTSVTVSS
VL: DARMTQSPSSLSASLGDRVTISCRASQDISNYLNWYQQKPDGTVKVLIYNTAKLHSGVPSRFSGSGSGTDYSLTISNLEQEDFATYFCQQGKTLPWTFGGGTKLELK
B4 returned a dissociation constant (Kd) in test [2] of 2.96 nM.
